This passage reports IC50 results from patent US20140087995A1 (published 2014).

Numbered stars: 1 amine (or outer) side, 2 acyl side, 3 side chain; on linkers, the order of the positions; unused ones are H or OH. Bridge positions count the residues as written; N and C are the ends. Side chains are listed from the residue outwards. Ends that are not written are not given here. * marks the point of attachment. C20 diacid = O=C(O)CCCCCCCCCCCCCCCCCCC(=O)*; γGlu = O=C(O)[C@H](CCC(=O)[*:2])N[*:1]; AEEA = NCCOCCOCC(=O)O

Sequences and labels used below:
T1: human amylin receptor (human, UniProt P30988 25-474; O60896 24-148, limits assumed)
T1 construct: whole, on cells; Calcitonin receptor plus RAMP-3 gives the amylin 3(a) receptor; membranes of Amylin 3(a)/CRE-luc cells were used; also called hAmylin-R; hAmylinR
T1 sequence (looked up) 1: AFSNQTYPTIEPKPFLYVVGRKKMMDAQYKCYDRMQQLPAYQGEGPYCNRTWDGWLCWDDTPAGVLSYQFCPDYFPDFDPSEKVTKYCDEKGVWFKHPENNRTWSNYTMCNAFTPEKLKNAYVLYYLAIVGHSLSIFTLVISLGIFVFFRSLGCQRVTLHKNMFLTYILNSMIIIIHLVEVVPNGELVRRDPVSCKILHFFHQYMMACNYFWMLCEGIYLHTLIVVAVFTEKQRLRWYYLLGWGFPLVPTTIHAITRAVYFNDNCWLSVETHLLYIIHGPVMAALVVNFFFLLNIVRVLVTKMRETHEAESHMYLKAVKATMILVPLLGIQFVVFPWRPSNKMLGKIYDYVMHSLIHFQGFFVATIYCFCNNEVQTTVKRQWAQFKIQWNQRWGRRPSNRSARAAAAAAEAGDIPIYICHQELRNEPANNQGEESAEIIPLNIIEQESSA
T1 sequence (looked up) 2: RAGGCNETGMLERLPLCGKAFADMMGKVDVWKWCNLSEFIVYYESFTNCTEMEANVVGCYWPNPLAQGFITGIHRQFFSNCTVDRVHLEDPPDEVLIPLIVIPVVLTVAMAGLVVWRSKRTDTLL

B1: N^-1-[(4S)-4-carboxy-4-(19-carboxynonadecanoylamino)butanoyl]-Gly[Arg1,Arg17,Pro21,Pro27]-h-amylin (peptide)
peptide: {C20 diacid-γGlu}-GRCNTATCATQRLANFLRHSSPNFGAIPSSTNVGSNTY-NH2
modifications: disulfide 3-8
SMILES: CC[C@H](C)[C@H](NC(=O)[C@H](C)NC(=O)CNC(=O)[C@H](Cc1ccccc1)NC(=O)[C@H](CC(N)=O)NC(=O)[C@@H]1CCCN1C(=O)[C@H](CO)NC(=O)[C@H](CO)NC(=O)[C@H](Cc1c[nH]cn1)NC(=O)[C@H](CCCNC(=N)N)NC(=O)[C@H](CC(C)C)NC(=O)[C@H](Cc1ccccc1)NC(=O)[C@H](CC(N)=O)NC(=O)[C@H](C)NC(=O)[C@H](CC(C)C)NC(=O)[C@H](CCCNC(=N)N)NC(=O)[C@H](CCC(N)=O)NC(=O)[C@@H](NC(=O)[C@H](C)NC(=O)[C@@H]1CSSC[C@H](NC(=O)[C@H](CCCNC(=N)N)NC(=O)CNC(=O)CC[C@H](NC(=O)CCCCCCCCCCCCCCCCCCC(=O)O)C(=O)O)C(=O)N[C@@H](CC(N)=O)C(=O)N[C@@H]([C@@H](C)O)C(=O)N[C@@H](C)C(=O)N[C@@H]([C@@H](C)O)C(=O)N1)[C@@H](C)O)C(=O)N1CCC[C@H]1C(=O)N[C@@H](CO)C(=O)N[C@@H](CO)C(=O)N[C@H](C(=O)N[C@@H](CC(N)=O)C(=O)N[C@H](C(=O)NCC(=O)N[C@@H](CO)C(=O)N[C@@H](CC(N)=O)C(=O)N[C@H](C(=O)N[C@@H](Cc1ccc(O)cc1)C(N)=O)[C@@H](C)O)C(C)C)[C@@H](C)O
notes: also called -1G, 1R, 17R, 21P, 27P
B2: N^-1-[(4S)-4-carboxy-4-(19-carboxynonadecanoylamino)butanoyl]-Gly[Arg1,Ala14,Arg17,Pro21,Pro27,Pro34]-h-amylin (peptide)
peptide: {C20 diacid-γGlu}-GRCNTATCATQRLAAFLRHSSPNFGAIPSSTNVGPNTY-NH2
modifications: disulfide 3-8
notes: also called -1G, 1R, 14A, 17R, 21P, 27P, 34P
B3: N^-1-[(4S)-4-carboxy-4-(19-carboxynonadecanoylamino)butanoyl]-Gly[Arg1,His14,Arg17,Pro21,Pro27,Pro34]-h-amylin (peptide)
peptide: {C20 diacid-γGlu}-GRCNTATCATQRLAHFLRHSSPNFGAIPSSTNVGPNTY-NH2
modifications: disulfide 3-8
SMILES: CC[C@H](C)[C@H](NC(=O)[C@H](C)NC(=O)CNC(=O)[C@H](Cc1ccccc1)NC(=O)[C@H](CC(N)=O)NC(=O)[C@@H]1CCCN1C(=O)[C@H](CO)NC(=O)[C@H](CO)NC(=O)[C@H](Cc1c[nH]cn1)NC(=O)[C@H](CCCNC(=N)N)NC(=O)[C@H](CC(C)C)NC(=O)[C@H](Cc1ccccc1)NC(=O)[C@H](Cc1c[nH]cn1)NC(=O)[C@H](C)NC(=O)[C@H](CC(C)C)NC(=O)[C@H](CCCNC(=N)N)NC(=O)[C@H](CCC(N)=O)NC(=O)[C@@H](NC(=O)[C@H](C)NC(=O)[C@@H]1CSSC[C@H](NC(=O)[C@H](CCCNC(=N)N)NC(=O)CNC(=O)CC[C@H](NC(=O)CCCCCCCCCCCCCCCCCCC(=O)O)C(=O)O)C(=O)N[C@@H](CC(N)=O)C(=O)N[C@@H]([C@@H](C)O)C(=O)N[C@@H](C)C(=O)N[C@@H]([C@@H](C)O)C(=O)N1)[C@@H](C)O)C(=O)N1CCC[C@H]1C(=O)N[C@@H](CO)C(=O)N[C@@H](CO)C(=O)N[C@H](C(=O)N[C@@H](CC(N)=O)C(=O)N[C@H](C(=O)NCC(=O)N1CCC[C@H]1C(=O)N[C@@H](CC(N)=O)C(=O)N[C@H](C(=O)N[C@@H](Cc1ccc(O)cc1)C(N)=O)[C@@H](C)O)C(C)C)[C@@H](C)O
notes: also called -1G, 1R, 14H, 17R, 21P, 27P, 34P
B4: N^-1-[(4S)-4-carboxy-4-(19-carboxynonadecanoylamino)butanoyl]-Gly[Arg1,Ala14,Arg17,Pro21,Pro27,His34]-h-amylin (peptide)
peptide: {C20 diacid-γGlu}-GRCNTATCATQRLAAFLRHSSPNFGAIPSSTNVGHNTY-NH2
modifications: disulfide 3-8
SMILES: CC[C@H](C)[C@H](NC(=O)[C@H](C)NC(=O)CNC(=O)[C@H](Cc1ccccc1)NC(=O)[C@H](CC(N)=O)NC(=O)[C@@H]1CCCN1C(=O)[C@H](CO)NC(=O)[C@H](CO)NC(=O)[C@H](Cc1c[nH]cn1)NC(=O)[C@H](CCCNC(=N)N)NC(=O)[C@H](CC(C)C)NC(=O)[C@H](Cc1ccccc1)NC(=O)[C@H](C)NC(=O)[C@H](C)NC(=O)[C@H](CC(C)C)NC(=O)[C@H](CCCNC(=N)N)NC(=O)[C@H](CCC(N)=O)NC(=O)[C@@H](NC(=O)[C@H](C)NC(=O)[C@@H]1CSSC[C@H](NC(=O)[C@H](CCCNC(=N)N)NC(=O)CNC(=O)CC[C@H](NC(=O)CCCCCCCCCCCCCCCCCCC(=O)O)C(=O)O)C(=O)N[C@@H](CC(N)=O)C(=O)N[C@@H]([C@@H](C)O)C(=O)N[C@@H](C)C(=O)N[C@@H]([C@@H](C)O)C(=O)N1)[C@@H](C)O)C(=O)N1CCC[C@H]1C(=O)N[C@@H](CO)C(=O)N[C@@H](CO)C(=O)N[C@H](C(=O)N[C@@H](CC(N)=O)C(=O)N[C@H](C(=O)NCC(=O)N[C@@H](Cc1c[nH]cn1)C(=O)N[C@@H](CC(N)=O)C(=O)N[C@H](C(=O)N[C@@H](Cc1ccc(O)cc1)C(N)=O)[C@@H](C)O)C(C)C)[C@@H](C)O
notes: also called -1G, 1R, 14A, 17R, 21P, 27P, 34H
B5: N^ε-[2-[2-[2-[[(4S)-4-carboxy-4-(19-carboxynonadecanoylamino)butanoyl]amino]ethoxy]ethoxy]acetyl]Lys[Arg1,Arg17,Pro21,Pro27,His35]-h-amylin (peptide)
peptide: K([AEEA-γGlu-C20 diacid])RCNTATCATQRLANFLRHSSPNFGAIPSSTNVGSHTY-NH2
modifications: disulfide 3-8; N-terminus assumed
SMILES: CC[C@H](C)[C@H](NC(=O)[C@H](C)NC(=O)CNC(=O)[C@H](Cc1ccccc1)NC(=O)[C@H](CC(N)=O)NC(=O)[C@@H]1CCCN1C(=O)[C@H](CO)NC(=O)[C@H](CO)NC(=O)[C@H](Cc1c[nH]cn1)NC(=O)[C@H](CCCNC(=N)N)NC(=O)[C@H](CC(C)C)NC(=O)[C@H](Cc1ccccc1)NC(=O)[C@H](CC(N)=O)NC(=O)[C@H](C)NC(=O)[C@H](CC(C)C)NC(=O)[C@H](CCCNC(=N)N)NC(=O)[C@H](CCC(N)=O)NC(=O)[C@@H](NC(=O)[C@H](C)NC(=O)[C@@H]1CSSC[C@H](NC(=O)[C@H](CCCNC(=N)N)NC(=O)[C@@H](N)CCCCNC(=O)COCCOCCNC(=O)CC[C@H](NC(=O)CCCCCCCCCCCCCCCCCCC(=O)O)C(=O)O)C(=O)N[C@@H](CC(N)=O)C(=O)N[C@@H]([C@@H](C)O)C(=O)N[C@@H](C)C(=O)N[C@@H]([C@@H](C)O)C(=O)N1)[C@@H](C)O)C(=O)N1CCC[C@H]1C(=O)N[C@@H](CO)C(=O)N[C@@H](CO)C(=O)N[C@H](C(=O)N[C@@H](CC(N)=O)C(=O)N[C@H](C(=O)NCC(=O)N[C@@H](CO)C(=O)N[C@@H](Cc1c[nH]cn1)C(=O)N[C@H](C(=O)N[C@@H](Cc1ccc(O)cc1)C(N)=O)[C@@H](C)O)C(C)C)[C@@H](C)O
notes: also called -1K, 1R, 17R, 21P, 27P, 35H
B6: N^-1-[(4S)-4-carboxy-4-(19-carboxynonadecanoylamino)butanoyl]-Gly[Arg1,Arg17,Pro21,Pro27,His35]-h-amylin (peptide)
peptide: {C20 diacid-γGlu}-GRCNTATCATQRLANFLRHSSPNFGAIPSSTNVGSHTY-NH2
modifications: disulfide 3-8
SMILES: CC[C@H](C)[C@H](NC(=O)[C@H](C)NC(=O)CNC(=O)[C@H](Cc1ccccc1)NC(=O)[C@H](CC(N)=O)NC(=O)[C@@H]1CCCN1C(=O)[C@H](CO)NC(=O)[C@H](CO)NC(=O)[C@H](Cc1c[nH]cn1)NC(=O)[C@H](CCCNC(=N)N)NC(=O)[C@H](CC(C)C)NC(=O)[C@H](Cc1ccccc1)NC(=O)[C@H](CC(N)=O)NC(=O)[C@H](C)NC(=O)[C@H](CC(C)C)NC(=O)[C@H](CCCNC(=N)N)NC(=O)[C@H](CCC(N)=O)NC(=O)[C@@H](NC(=O)[C@H](C)NC(=O)[C@@H]1CSSC[C@H](NC(=O)[C@H](CCCNC(=N)N)NC(=O)CNC(=O)CC[C@H](NC(=O)CCCCCCCCCCCCCCCCCCC(=O)O)C(=O)O)C(=O)N[C@@H](CC(N)=O)C(=O)N[C@@H]([C@@H](C)O)C(=O)N[C@@H](C)C(=O)N[C@@H]([C@@H](C)O)C(=O)N1)[C@@H](C)O)C(=O)N1CCC[C@H]1C(=O)N[C@@H](CO)C(=O)N[C@@H](CO)C(=O)N[C@H](C(=O)N[C@@H](CC(N)=O)C(=O)N[C@H](C(=O)NCC(=O)N[C@@H](CO)C(=O)N[C@@H](Cc1c[nH]cn1)C(=O)N[C@H](C(=O)N[C@@H](Cc1ccc(O)cc1)C(N)=O)[C@@H](C)O)C(C)C)[C@@H](C)O
notes: also called -1G, 1R, 17R, 21P, 27P, 35H
B7: N^ε1-[2-[2-[2-(19-carboxynonadecanoylamino)ethoxy]ethoxy]acetyl]-[Arg17,Pro21,Pro27]-h-amylin (peptide)
peptide: K([AEEA-C20 diacid])CNTATCATQRLANFLRHSSPNFGAIPSSTNVGSNTY-NH2
modifications: disulfide 2-7; N-terminus assumed
SMILES: CC[C@H](C)[C@H](NC(=O)[C@H](C)NC(=O)CNC(=O)[C@H](Cc1ccccc1)NC(=O)[C@H](CC(N)=O)NC(=O)[C@@H]1CCCN1C(=O)[C@H](CO)NC(=O)[C@H](CO)NC(=O)[C@H](Cc1c[nH]cn1)NC(=O)[C@H](CCCNC(=N)N)NC(=O)[C@H](CC(C)C)NC(=O)[C@H](Cc1ccccc1)NC(=O)[C@H](CC(N)=O)NC(=O)[C@H](C)NC(=O)[C@H](CC(C)C)NC(=O)[C@H](CCCNC(=N)N)NC(=O)[C@H](CCC(N)=O)NC(=O)[C@@H](NC(=O)[C@H](C)NC(=O)[C@@H]1CSSC[C@H](NC(=O)[C@@H](N)CCCCNC(=O)COCCOCCNC(=O)CCCCCCCCCCCCCCCCCCC(=O)O)C(=O)N[C@@H](CC(N)=O)C(=O)N[C@@H]([C@@H](C)O)C(=O)N[C@@H](C)C(=O)N[C@@H]([C@@H](C)O)C(=O)N1)[C@@H](C)O)C(=O)N1CCC[C@H]1C(=O)N[C@@H](CO)C(=O)N[C@@H](CO)C(=O)N[C@H](C(=O)N[C@@H](CC(N)=O)C(=O)N[C@H](C(=O)NCC(=O)N[C@@H](CO)C(=O)N[C@@H](CC(N)=O)C(=O)N[C@H](C(=O)N[C@@H](Cc1ccc(O)cc1)C(N)=O)[C@@H](C)O)C(C)C)[C@@H](C)O
notes: also called 17R, 21P, 27P

The target in this assay is T1, human amylin receptor. Kind of assay: SPA competition binding, displacement of 125I-rat amylin from membranes with human amylin 3(a) receptor (Assay V). The method, boiled down:
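SPA beads with BHK Amylin 3(a)/CRE-luc cell membranes (35 ng/μL final) in 50 mM Hepes pH 7.4, 1 mM CaCl2, 5 mM MgCl₂, 0.1% OA, 0.02% Tween20.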
Consider B1, for which the 50% inhibitory concentration (IC50) was found to be 0.195 nM. Molecule B2 yielded a half-maximal inhibitory concentration (IC50) of 0.114 nM. The molecule B3 came in with an IC50 of 0.217 nM.

Regarding B4, the IC50 amounted to 0.426 nM. For B5 the value was 0.552 nM. Under B6 stands 0.344 nM. Under B7 stands 0.076 nM.
